Measurements as given in paper PMC6405930, “Conservation of the Amyloid Interactome Across Diverse Fibrillar Structures” (Scientific Reports, 2019).

Experiments:
Ab2 fibrils [1] = tested on: T1, Ab2 fibrils; assay: Fibril incubation with plasma, quantitative MS/MS of bound proteins; type: binding, human; details: 50:1 w/w plasma protein:fibril
T1 construct: Two structurally distinct fibrils of the Aβ(1–40) peptide associated with AD
Experimental: (§1) Plasma and CSF solutions were centrifuged (40,000 g, 20 min) to remove any aggregates. The protein concentration was determined using 280 nm absorbance assuming 1 Abs = 1 mg/mL. […] Control samples (without fibril material) were prepared similarly. All samples were incubated at room temperature for one hour under gentle agitation. Fibrils and fibril-bound proteins were pelleted by centrifugation at 17,000 g for 30 minutes. The supernatant (175 μL) was removed and the aggregate was re-suspended in 175 μL PBS and pelleted again before further preparation for gel analysis and spin-filter assisted digest for quantitative MS/MS.
(§2) The fibril-protein pellets were transferred to spin-filters (0.22 μm), washed twice in PBS (100 μL) and once in 1 M NaCl (100 μL). The fibrils and fibril-bound proteins were dissolved by one-hour incubation in 100 μL 6 M guanidinium chloride followed by elution from the spin-filter. The eluted proteins were loaded onto a 3 kDa MWCO filter unit for filter-assisted unfolding, reduction, alkylation, and trypsin digestion. In brief, samples were washed twice in 8 M urea, once in 8 M urea with 50 mM DTT, once in 8 M urea with 50 mM iodoaceteamide, and twice in 8 M Urea. The filter units were dried by centrifugation (14,000 g in 30 minutes) after every addition. Trypsin digestion was carried out with 0.25 μg sequencing grade trypsin from Sigma Aldrich in 50 mM ammonium bicarbonate overnight at 37 °C. The tryptic peptides were collected by centrifugation, acidified with TFA (0.1%) and micro-purified using POROS R2 column material (Applied Biosystems) packed in P200 pipette tips (Sarstedt).
(§3) LC-MS/MS analyses were performed on an EASY-nLC II system (Thermo Fisher Scientific) connected to a TripleTOF 5600+ mass spectrometer (Sciex) equipped with a NanoSpray III source (Sciex) and operated under Analyst TF 1.6.0 control.
(§4) The micro-purified tryptic peptides were dissolved in 0.1% formic acid, injected and trapped on an in-house packed trap column (2 cm × 100 μm I.D) with RP ReproSil-Pur C18-AQ 3 μm resin (Dr. Maisch GmbH). Peptides were eluted from the trap column and separated on a 15 cm analytical column (75 μm i.d.) packed in-house in a pulled emitter with RP ReproSil-Pur C18-AQ 3 μm resin (Dr. Maisch GmbH). Elution from the analytical column was performed with a linear gradient from 5% to 35% phase B (90% acetonitrile with 0.1% formic acid) over 20 min for protein identification and 50 min for quantitative analysis, respectively.
(§5) All samples were analysed three times, yielding nine MS/MS experiments for each fibril for both plasma and CSF. For the area-based extracted ion chromatogram (XIC) quantification, the acquisition method was set up as an information-dependent acquisition (IDA) experiment collecting up to 25 MS/MS spectra in each 1.6 sec cycle using an exclusion window of 6 sec.
(§6) XIC quantification was based on the average ion intensity of the three most abundant peptides for each protein. Only proteins quantified in at least four out of nine MS/MS experiments per fibril were included in the quantification. The total ion scores were visualized after grouping the proteins according to function (Figure S11).
(§7) For each MS/MS experiment, the ion intensities of the individual proteins were normalized to the total ion intensity of that MS/MS experiment to achieve a relative protein composition. The contribution of each protein was averaged over all nine MS/MS experiments (Tables 1 and 2).

glucagon fibrils [2] = biological target: T2, glucagon fibrils (Homo sapiens, UniProt P01275); assay: as above; type: binding; details: 50:1 w/w plasma protein:fibril
T2 construct: fibrils of the peptide hormone glucagon
Experimental: as §1, §2, §3, §4, §5, §6, §7

C-36 fibrils [3] = biological target: T3, C-36 fibrils (Homo sapiens, UniProt P01009); assay: as above; type: binding; details: 50:1 w/w plasma protein:fibril
T3 construct: the 36 residue C-terminal fragment of α1-antitrypsin (C-36)
Experimental: as §1, §2, §3, §4, §5, §6, §7

FAS4-AD aggregates [4] = tested on: T4, FAS4-AD aggregates; assay: as above; type: binding, human; design: key to Identification status of plasma protein bound: FAS4-AD: *: Identified, but not quantified; —: Not identified in any of the samples; details: for Relative composition of plasma proteins bound: FAS4-AD: 50:1 w/w plasma protein:fibril
T4 construct: aggregates of a mutated version of the FAS1-4 domain of TGFBIp
Experimental: as §1, §2, §3, §4, §5, §6, §7

Ab1 fibrils [5] = tested on: T5, Ab1 fibrils; assay: as above; type: binding, human; details: 50:1 w/w plasma protein:fibril
T5 construct: Synthetic amyloid β peptide 1–40 was purchased from Caslo Aps (Lyngby, Denmark); purchased Caslo Aps (Lyngby, Denmark); host or cells: synthetic peptide
Experimental: Plasma and CSF solutions were centrifuged (40,000 g, 20 min) to remove any aggregates. The protein concentration was determined using 280 nm absorbance assuming 1 Abs = 1 mg/mL. […] Control samples (without fibril material) were prepared similarly. All samples were incubated at room temperature for one hour under gentle agitation. Fibrils and fibril-bound proteins were pelleted by centrifugation at 17,000 g for 30 minutes. The supernatant (175 μL) was removed and the aggregate was re-suspended in 175 μL PBS and pelleted again before further preparation for gel analysis and spin-filter assisted digest for quantitative MS/MS.
as §2, §3, §4, §5, §6, §7

αSN fibrils = αSN fibrils (Homo sapiens, UniProt P37840); assay: as above; type: binding; details: 50:1 w/w plasma protein:fibril
Experimental: as §1, §2, §3, §4, §5, §6, §7

Ab1 fibrils [6] = tested on: T5, Ab1 fibrils; assay: Fibril incubation with CSF, quantitative MS/MS of bound proteins; type: binding, human; details: 4:1 w/w CSF protein:fibril
Experimental: as §1, §2, §3, §4, §5, §6, §7

FAS4-AD aggregates [7] = tested on: T4, FAS4-AD aggregates; assay: as above; type: binding, human; design: key to Identification status of CSF protein bound: FAS4-AD: *: Identified, but not quantified; —: Not identified in any of the samples; details: symbol cells
Experimental: as §1, §2, §3, §4, §5, §6, §7

Ab2 fibrils [8] = tested on: T1, Ab2 fibrils; assay: as above; type: binding, human; details: 4:1 w/w CSF protein:fibril
Experimental: as §1, §2, §3, §4, §5, §6, §7

glucagon fibrils [9] = biological target: T2, glucagon fibrils; assay: as above; type: binding; details: 4:1 w/w CSF protein:fibril
Experimental: as §1, §2, §3, §4, §5, §6, §7

C-36 fibrils [10] = biological target: T3, C-36 fibrils; assay: as above; type: binding; details: 4:1 w/w CSF protein:fibril
Experimental: as §1, §2, §3, §4, §5, §6, §7

T3 sequence (P01009 383-418 limits assumed): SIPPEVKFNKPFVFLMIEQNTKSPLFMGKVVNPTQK
T2 sequence (P01275 53-81 limits assumed): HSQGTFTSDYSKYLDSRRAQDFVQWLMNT

Molecule	Relative composition of plasma proteins bound: Ab2 (Ab2 fibrils [1])	Relative composition of plasma proteins bound: Glucagon (glucagon fibrils [2])	Relative composition of plasma proteins bound: C-36 (C-36 fibrils [3])	Identification status of plasma protein bound: FAS4-AD (FAS4-AD aggregates [4]; symbol cells)	Relative composition of plasma proteins bound: Ab1 (Ab1 fibrils [5])	Relative composition of plasma proteins bound: αSN (αSN fibrils)	Relative composition of plasma proteins bound: FAS4-AD (FAS4-AD aggregates [4])	Relative composition of CSF proteins bound: Ab1 (Ab1 fibrils [6])	Identification status of CSF protein bound: FAS4-AD (FAS4-AD aggregates [7])	Relative composition of CSF proteins bound: Ab2 (Ab2 fibrils [8])	Relative composition of CSF proteins bound: Glucagon (glucagon fibrils [9])	Relative composition of CSF proteins bound: C-36 (C-36 fibrils [10])
C4b-binding protein β chain: plasma protein bound to fibrils (protein, UniProt P20851 18-252, looked up) C4b-binding protein beta chain: SDAEHCPELPPVDNSIFVAKEVEGQILGTYVCIKGYHLVGKKTLFCNASKEWDNTTTECRLGHCPDPVLVNGEFSSSGPVNVSDKITFMCNDHYILKGSNRSQCLEDHTWAPPFPICKSRDCDPPGNPVHGYFEGNNFTLGSTISYYCEDRYYLVGVQEQQCVDGEWSSALPVCKLIQEAPKPECEKALLAFQESKNLCEAMENFMQQLKESGMTMEELKYSLELKKAELKAKLL	1.3 ± 0.3 % of total protein	0.5 ± 0.1 % of total protein	0.7 ± 0.1 % of total protein	*	0.9 ± 0.1 % of total protein	1.3 ± 0.4 % of total protein	–	–	–	–	–	–
C4b-binding protein α chain: plasma protein bound to fibrils (protein, UniProt P04003 49-597, looked up) C4b-binding protein alpha …: NCGPPPTLSFAAPMDITLTETRFKTGTTLKYTCLPGYVRSHSTQTLTCNSDGEWVYNTFCIYKRCRHPGELRNGQVEIKTDLSFGSQIEFSCSEGFFLIGSTTSRCEVQDRGVGWSHPLPQCEIVKCKPPPDIRNGRHSGEENFYAYGFSVTYSCDPRFSLLGHASISCTVENETIGVWRPSPPTCEKITCRKPDVSHGEMVSGFGPIYNYKDTIVFKCQKGFVLRGSSVIHCDADSKWNPSPPACEPNSCINLPDIPHASWETYPRPTKEDVYVVGTVLRYRCHPGYKPTTDEPTTVICQKNLRWTPYQGCEALCCPEPKLNNGEITQHRKSRPANHCVYFYGDEISFSCHETSRFSAICQGDGTWSPRTPSCGDICNFPPKIAHGHYKQSSSYSFFKEEIIYECDKGYILVGQAKLSCSYSHWSAPAPQCKALCRKPELVNGRLSVDKDQYVEPENVTIQCDSGYGVVGPQSITCSGNRTWYPEVPKCEWETPEGCEQVLTGKRLMQCLPNPEDVKMALEVYKLSLEIEQLELQRDSARQSTLDKEL	9.9 ± 0.5 % of total protein	3.0 ± 0.1 % of total protein	5.5 ± 0.3 % of total protein	–	6.1 ± 0.2 % of total protein	7.4 ± 2.5 % of total protein	2.7 ± 0.9 % of total protein	–	–	–	–	–
Ig γ -2 chain C region: plasma/CSF protein bound to fibrils (protein, UniProt P01859 1-395, looked up) Immunoglobulin heavy constant …: ASTKGPSVFPLAPCSRSTSESTAALGCLVKDYFPEPVTVSWNSGALTSGVHTFPAVLQSSGLYSLSSVVTVPSSNFGTQTYTCNVDHKPSNTKVDKTVERKCCVECPPCPAPPVAGPSVFLFPPKPKDTLMISRTPEVTCVVVDVSHEDPEVQFNWYVDGVEVHNAKTKPREEQFNSTFRVVSVLTVVHQDWLNGKEYKCKVSNKGLPAPIEKTISKTKGQPREPQVYTLPPSREEMTKNQVSLTCLVKGFYPSDISVEWESNGQPENNYKTTPPMLDSDGSFFLYSKLTVDKSRWQQGNVFSCSVMHEALHNHYTQKSLSLSPELQLEESCAEAQDGELDGLWTTITIFITLFLLSVCYSATITFFKVKWIFSSVVDLKQTIVPDYRNMIRQGA	0.9 ± 0.1 % of total protein	0.9 ± 0.1 % of total protein	1.2 ± 0.2 % of total protein	–	0.9 ± 0.1 % of total protein	1.2 ± 0.8 % of total protein	–	1.7 ± 0.2 % of total protein	*	2.0 ± 0.3 % of total protein	1.1 ± 0.3 % of total protein	1.0 ± 0.3 % of total protein
Ig μ chain C region: plasma protein bound to fibrils (protein, UniProt P01871 1-474, looked up) Immunoglobulin heavy constant …: GSASAPTLFPLVSCENSPSDTSSVAVGCLAQDFLPDSITFSWKYKNNSDISSTRGFPSVLRGGKYAATSQVLLPSKDVMQGTDEHVVCKVQHPNGNKEKNVPLPVIAELPPKVSVFVPPRDGFFGNPRKSKLICQATGFSPRQIQVSWLREGKQVGSGVTTDQVQAEAKESGPTTYKVTSTLTIKESDWLGQSMFTCRVDHRGLTFQQNASSMCVPDQDTAIRVFAIPPSFASIFLTKSTKLTCLVTDLTTYDSVTISWTRQNGEAVKTHTNISESHPNATFSAVGEASICEDDWNSGERFTCTVTHTDLPSPLKQTISRPKGVALHRPDVYLLPPAREQLNLRESATITCLVTGFSPADVFVQWMQRGQPLSPEKYVTSAPMPEPQAPGRYFAHSILTVSEEEWNTGETYTCVVAHEALPNRVTERTVDKSTEGEVSADEEGFENLWATASTFIVLFLLSLFYSTTVTLFKVK	0.7 ± 0.2 % of total protein	0.8 ± 0.1 % of total protein	0.4 ± 0.1 % of total protein	–	0.6 ± 0.0 % of total protein	0.5 ± 0.2 % of total protein	2.6 ± 1.5 % of total protein	–	–	–	–	–
